Experimental data as given in patent US20250152729A1 (CANCER RESEARCH TECHNOLOGY, published 2025).

Target: T1, recombinant cynomolgus SEMA4A AviHis10, biotinylated (cynomolgus, UniProt Q9H3S1 32-677 (human entry), biotin on the Avi tag (BirA))
T1 construct: The text says amino acids 32-679 of G7NV79 with C-terminal Avi tag and His10 tag; also called Cyno SEMA4A AviHis10; cynoSEMA4A
T1 chain: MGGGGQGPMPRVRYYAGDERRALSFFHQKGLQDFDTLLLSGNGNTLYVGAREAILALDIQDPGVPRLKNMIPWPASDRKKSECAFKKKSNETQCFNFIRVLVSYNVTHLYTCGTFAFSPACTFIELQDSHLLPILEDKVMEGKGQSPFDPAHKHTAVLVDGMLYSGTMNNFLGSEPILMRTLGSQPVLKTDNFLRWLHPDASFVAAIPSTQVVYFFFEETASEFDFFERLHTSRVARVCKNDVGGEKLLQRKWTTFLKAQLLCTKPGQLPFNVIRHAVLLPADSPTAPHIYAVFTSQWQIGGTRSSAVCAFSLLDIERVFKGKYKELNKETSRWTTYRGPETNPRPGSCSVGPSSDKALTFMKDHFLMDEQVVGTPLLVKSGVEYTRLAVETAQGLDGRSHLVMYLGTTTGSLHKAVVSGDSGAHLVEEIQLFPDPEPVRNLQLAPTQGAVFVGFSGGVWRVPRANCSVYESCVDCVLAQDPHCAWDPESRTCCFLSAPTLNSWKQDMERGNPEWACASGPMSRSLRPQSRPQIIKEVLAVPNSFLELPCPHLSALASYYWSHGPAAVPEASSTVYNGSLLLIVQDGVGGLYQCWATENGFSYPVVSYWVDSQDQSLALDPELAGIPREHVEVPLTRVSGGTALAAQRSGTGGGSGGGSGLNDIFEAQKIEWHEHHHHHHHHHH
Assay: BLI (OctetRED), biotinylated SEMA4A on streptavidin tip, IgG as analyte, 1:1 model; KD(observed) IgG
Description: An Octet Kinetics buffer (PBS containing 0.01% (v/v) BSA and 0.002% (v/v) Tween20) is typically used as the diluent buffer for the analyte samples and as the flow buffer during the dissociation phase. The experimental data is recorded as shift in interference pattern (nm) over time, which is directly proportional to the optical thickness at the biosensor tip, which in turn is an approximate measure of the mass of analyte bound. The proprietary Octet Data Analysis software package can then be used to process data and fit binding models to the data sets. Returned association (ka, M-1 s-1) and dissociation (kd, s-1) rate constants allow calculation of dissociation (KD, M) affinity constants.
The affinity of binding between the analytes (humanised and phage display derived IgGs as human Alya IgG1s and Fabs) and human SEMA4A and cynomolgus SEMA4A, was estimated using assays in which the biotinylated SEMA4A antigen was captured on a streptavidin sensor tip. A fresh sensor tip was used for each measurement and no regeneration was used. A series of dilutions of the lead Fabs and human Alya IgG1s (3.25-240 nM) were individually placed in contact with the ligand surface for a sufficient amount of time to observe sensorgrams that could be fitted to an appropriate binding model with confidence (typically 5 minutes), followed by an appropriate length of dissociation time (typically 10 minutes). Blank reference (0 nM analyte) data were subtracted from each dataset to reduce the impact of any buffer artefacts or non-specific binding effects. A 1:1 binding model was then fitted simultaneously to the data from each analyte titration using the Octet Evaluation software (Table 8).

B1: C0120918 human Alya IgG1 (antibody, V domains shown)
VH: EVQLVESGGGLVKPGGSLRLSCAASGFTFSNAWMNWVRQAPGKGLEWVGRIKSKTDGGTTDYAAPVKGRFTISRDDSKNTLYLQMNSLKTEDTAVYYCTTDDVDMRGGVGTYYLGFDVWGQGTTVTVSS
VL: SYELTQPPSVSVSPGQTARITCSGDALPKQYAYWYQQKPGQAPVLVIYKDSERPSGIPERFSGSSSGTTVTLTISGVQAEDEADYYCQSADSSGTWVFGGGTKVTVL
notes: Fully human, phage display derived; human IgG1 Alya constant (239iCys, S442C, EU); unconjugated
Kd: 9 nM
